The values below come from the supplement of paper PMC9170038.

Series [1] has as its system MS2 coat protein. In words: apparent KD of MS2 coat protein, switch OFF state (with FMN for OFF switches, without FMN for ON switches); designed switch direction (-1 OFF switch, 1 ON switch): -1; higher = weaker reporter binding. Conditions: FMN input: 0 or 200 uM; Eterna round: R93 (includes R88 designs). The method, boiled down: (§1)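 Designed RNA switches, transcribed on-chip from Illumina sequencing clusters, were titrated with SNAP-549-labelled MS2 coat protein from 0.7 or 1.5 nM to 3 µM in twofold steps. The solution was 100 mM Tris-HCl pH 7.5, 80 mM KCl, 4 mM MgCl2, with constant ligand or without it. Apparent KD is the median over each design's normalised cluster binding-curve fits.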

Series [2] relates to MS2 coat protein. In words: apparent KD of MS2 coat protein, switch ON state; designed switch direction (-1 OFF switch, 1 ON switch): -1; higher = weaker reporter binding. Conditions: FMN input: 0 or 200 uM; Eterna round: R93 (includes R88 designs). The method in brief: as §1

For “GGGCCACAUGAGGAUCACCCAUGUAAGGAUAUGCUAGGGAUGGAAACCAUUACGCAAAGCAGAAGGUACUAAAG [Janelle Amethyst 18 Mod 10 - Jieux - Exclusion 1]”, the “apparent KD of MS2 coat protein” value in the series on MS2 coat protein [1] was determined as 28.2 nM; in the series with MS2 coat protein [2], 26.6 nM.
Taken in the same sequence, the figures for “AAAAAGUCAGGAUAUGUCAAAGGUCACGAAAGUGACAAAGGACAGAAGGGACAUGAGGAUCACCCAUGUAAAAA [Fiskers Exclusion 4 D1]” were 49.5 nM and 53.5 nM.
With “AAACGUACAGGAUAUACGAAAAGAUUACGAAAGUAAUCGGGACAUGAGGAUCACCCAUGUAGAAGGGUACGAAA [Mod2 of Meechl 64% 4]”, the “apparent KD of MS2 coat protein” value in the series with MS2 coat protein [1] was determined as 61.7 nM; in the series on MS2 coat protein [2], 48 nM.
In the same order, the values of “AAGAAGAGAGGAUAUACAAAAUAAAAGAAAAGAAAGAAAGAACAUGAGGAUCACCCAUGUAGAAGGCUCAAGAA [Hotepibre Qemau Siharnedjheritef]” are 28.4 nM and 25.6 nM.
“AAAAAGGUAGGAUAUACGAAAAAAAAAGGUGAAAAAAAAAAACAUGAGGAUCACCCAUGUAGAAGGACCAAAAA [Ex 2 sub 1 70% 2]”: the “apparent KD of MS2 coat protein” value with MS2 coat protein [1] stood at 76.7 nM; in the series on MS2 coat protein [2], 39.3 nM.
In the same order, the values of “AAGAACACAGGAUAUACAUGAGGAUCACCCAUGUAAAAGAAAGAAGGGAAAGAGAAAAGUAGAAGGGUGAAGAA [Ker]” are 36.6 nM and 33.1 nM.
In the same order, the values of “AACAAGUCAGGAUAUCCGAAAAGUAAAUAAGUAAAACAAAAGGAGAAGGGACAUGAGGAUCACCCAUGUAAAUA [JR_Exc004_Sub015]” are 27.2 nM and 48.1 nM.
As for “CAGGUAUGAGGAUAUACAUAGAUACAGACACAUGUUCAAGUACAUGAGGAUCACCCAUGUAGAAGGCAUAUAUG [Mat - Same state - Mayanna Mod - D106]”, the “apparent KD of MS2 coat protein” value in the series with MS2 coat protein [1] came to 35.1 nM; with MS2 coat protein [2], 22.3 nM.
With “AACAAGGCAGGAUAUACAUGAGGAUCACCCAUGUGAGAAUUAAGUGGCGUAACACAAAGUAGAAGGGCCAUGGA [Ruby 5]”, the “apparent KD of MS2 coat protein” value was found to be 49.9 nM in the series with MS2 coat protein [1] and 39.5 nM in the series on MS2 coat protein [2].
Taken in the same sequence, the figures for “AAGAACAAAGGAUAUACAAGGAAGAAAGAAAAGAAAAGAAAACAUGAGGAUCACCCAUGUAGAAGGUUGUAGAA [EteRNA is fun!]” were 20.7 nM and 24.7 nM.
In the same order, the values of “AAAACGUGAGGAUAUGCACCAAAAAAGGUAAAUCGGGUACGACAUGAGGAUCACCCAUGUAGAAGGCACGAAAA [Frodo Flailing 11 - Jieux - Exclusion 2]” are 42.9 nM and 28.2 nM.
Taken in the same sequence, the figures for “CUCAUGUAAGGAUAUGACUACAUAAAAAAAAAAAAAUGUAGUCAGAAGGUACAUGAGGAUCACCCAUGUACAAA [Brourd - Exclusion 4 - Sub 3]” were 25.2 nM and 59 nM.
For “AGGAAACAUGAGGAUCACCCAUGUGAGGAUAUGUAAAAGAAAAGAAAAGAAAGAAGAAACAGAAGGCACAAGAA [Nynetjer]”, the “apparent KD of MS2 coat protein” value was found to be 49.1 nM in the series on MS2 coat protein [1] and 49.4 nM in the series with MS2 coat protein [2].
Taken in the same sequence, the figures for “AACAGUACAGGAUAUACAUGAGGAUCACCCAUGUGAGAAUUAAGUGGCGUACCACAAAGUAGAAGGGUACUGGA [JL Maslow Revisted mod 16]” were 173 nM and 35 nM.
In the same order, the values of “AAAAAACAUGAGGAUCACCCAUGUAAGGAUAUGCAAGCAAGAAGAAAGAACAGAAAAAGCAGAAGGUACAAAAA [Amethyst 72]” are 35.9 nM and 25.3 nM.
In the case of “GCUUUGCAAGGAUAUACAUGAGGAUCACCCAUGUGAGAGAAAAAAGUGAGAAAGAAAAGUAGAAGGUGCGGAGG [salish99-ex3-120]”, the “apparent KD of MS2 coat protein” value with MS2 coat protein [1] is 44 nM; with MS2 coat protein [2], 34.2 nM.
Taken in the same sequence, the figures for “AAAAAACAUGAGGAUCACCCAUGUGAGGAUAUGCUGCGAAUAAAGAAAGAAGAAAGCAGCAGAAGGCACACCAA [Amethyst 77]” were 45.6 nM and 26.5 nM.
In the same order, the values of “AAGGGACAUGAGGAUCACCCAUGUGAGGAUAUGACGUAAAUAAAGAAAGAAGAAAUCGUCAGAAGGCACACCAA [55%, Disencluded 2, 3]” are 117 nM and 67 nM.
In the same order, the values of “AAGAGUAGAGGAUAUACAUGAAAAGAGUCGAAAGACUCAAAACAUGAGGAUCACCCAUGUAGAAGGCUACUCAA [Hyphema Seclusion Mod 62% 3]” are 81.4 nM and 137 nM.
Turning to “AGGGAGUCAGGAUAUCGGAAAACAAAACAACGAAAAAAAGACGAGAAGGGACAUGAGGAUCACCCAUGUAAGAA [milkweed 17]”, the “apparent KD of MS2 coat protein” value worked out at 21.6 nM in the series on MS2 coat protein [1] and 41.4 nM in the series with MS2 coat protein [2].
Regarding “AAAAGUACAGGAUAUACAUGAGGAUCACCCAUGUAGAAAGGAAGUGUAAAAAAAAAGUGUAGAAGGGUGCAUGA [MS2 Riboswitches On Chip Exclusion 3 wbt1]”, the “apparent KD of MS2 coat protein” value in the series on MS2 coat protein [1] was found to be 21.2 nM; with MS2 coat protein [2], 22.5 nM.
In the same order, the values of “AGCAAGAGAGGAUAUACAUAAAAAAAAAAAGUCUGAUCCCUACAUGAGGAUCACCCAUGUAGAAGGCUCUGGCA [Ex2 Design 156: Sub-opt 20]” are 26.2 nM and 28.8 nM.
In the same order, the values of “AGCUAGUCAGGAUAUACGAACAGGUCAAAAGACUUGAAGGGACAUGAGGAUCACCCAUGUAGAAGGGACUAGCA [Mat - Exclusion 2 - JL mod - D25]” are 128 nM and 32.2 nM.
Turning to “AAAAAACAUGAGGAUCACCCAUGUAAGGAUAUGUAAAAUAAAAGAAAAAUAAAGAAAAGCAGAAGGUAUAUGAA [JL wbt mod 13]”, the results for the “apparent KD of MS2 coat protein” value in the series with MS2 coat protein [1] and with MS2 coat protein [2] were 40.7 nM and 27.6 nM, respectively.
With “AAAAAGGCAGGAUAUACGUACAUGUCAAAAGACGUGAAGGGACAUGAGGAUCACCCAUGUAGAAGGGUCAAGAA [JL Stem Breaker 19]”, the “apparent KD of MS2 coat protein” value with MS2 coat protein [1] amounted to 61.9 nM; with MS2 coat protein [2] it was 128 nM.
Taken in the same sequence, the figures for “UAGGUACGAGGAUAUACAUAGAUACAGACACAUGUAGAUGUACAUGAGGAUCACCCAUGUAGAAGGCGUAUAUA [Mat - Same state - Mayanna Mod - D110]” were 142 nM and 52.6 nM.
In the same order, the values of “AACAGUACAGGAUAUACAUGAGGAUCACCCAUGUGGGUAAAAAGAUCGAGAGAUCAAUGUAGAAGGGUACUGGA [JL In the Red 04]” are 104 nM and 259 nM.
Taken in the same sequence, the figures for “AAAAAGUGAGGAUAUGUCAAAGGUCACGAAAGUGACAAAGGACAGAAGGCACAUGAGGAUCACCCAUGUGGGAA [Fiskers Exclusion 4D1 65% - Early + late G segment 1]” were 77.6 nM and 67.4 nM.
Consider “GAGAAGUUAGGAUAUGCGGAGGGAAGGAAGGAAAGGGAAGGGCAGAAGGAACAUGAGGAUCACCCAUGUAAGAG [salish99-ex4-02]”, for which the “apparent KD of MS2 coat protein” value worked out at 25.3 nM with MS2 coat protein [1] and 35.9 nM in the series with MS2 coat protein [2].
Taken in the same sequence, the figures for “ACUAAUGAAGGAUAUACAAACAAAAAAAAAACAAAAAAAAAACAUGAGGAUCACCCAUGUAGAAGGUCAAAAAU [JR_Exc002_Sub1201]” were 20 nM and 22 nM.
In the same order, the values of “UACGUAUGAGGAUAUACAAACAGAAAAAUCAGACAUAACAGACAUGAGGAUCACCCAUGUAGAAGGCAUAUACA [JR_Exc002_Sub903]” are 15.3 nM and 20.1 nM.
“CCUAAGAAAGGAUAUACACCGGUGAACCGCUGAAAUCAGCAACAUGAGGAUCACCCAUGUAGAAGGUUUAUGGG [Erusqu]”: the “apparent KD of MS2 coat protein” value amounted to 133 nM in the series with MS2 coat protein [1] and 237 nM with MS2 coat protein [2].
With “AAAAAGUCAGGAUAUACAUGAGGAUCACCCAUGUAAAAAAAAGGGAAAAAAAAAAAGGGUAGAAGGGACGAAAA [Exclusion 3]”, the “apparent KD of MS2 coat protein” value is 28.8 nM with MS2 coat protein [1] and 25.3 nM in the series on MS2 coat protein [2].
In the same order, the values of “CUCAUGUCAGGAUAUGUAGCAUGAUACGAAAGUAUCAUGCUACAGAAGGGACAUGAGGAUCACCCAUGUCAAAA [Ex4: 943]” are 17.5 nM and 22.1 nM.
In the same order, the values of “CCUACGUGAGGAUAUGCGGAUAACACGUUAGACAAAUAGACGCAGAAGGCACAUGAGGAUCACCCAUGUGAACC [JR_Exc004_Sub317]” are 17.6 nM and 21.9 nM.
For the sequence “AGCUAGUCAGGAUAUACAAAAUGAUUGCAAAAGCAAUCAACACAUGAGGAUCACCCAUGUAGAAGGGACUAGCA [Mat - Exclusion 2 - JL-Eli mod - D44]”, the “apparent KD of MS2 coat protein” value in the series on MS2 coat protein [1] came to 19.4 nM; with MS2 coat protein [2], 19 nM.
In the same order, the values of “AGAAUACAUGAGGAUCACCCAUGUGAGGAUAUGCAAAUAAAAAUAAAAUAAAAUAAUUGCAGAAGGCACGAAAG [EX 1 May 23]” are 91.2 nM and 44.4 nM.
Taken in the same sequence, the figures for “AAAAAACAUGAGGAUCACCCAUGUAAGGAUAUGCUAGGAAAAAGAAAAAUAAAAACUAGCAGAAGGUACAUAAA [JL wbt mod 10]” were 30.6 nM and 25.3 nM.
As for “AAAAACAUAGGAUAUACAUGAGGAUCACCCAUGUUAAAAUAAAGAAAGGGAGAAAUAAGUAGAAGGAUGAAAAA [Meechl Ex3 3]”, the entries for the “apparent KD of MS2 coat protein” value in the series with MS2 coat protein [1] and in the series on MS2 coat protein [2] were 31.2 nM and 26.5 nM, respectively.
